# Source: the RNAGym collection of RNA variant scans (doi:10.1073/pnas.2313332121)
# Variants at the floor of the assay were thinned out.
# B1: TPR 5TU (parent)
# chain: GGAUCUUCUCGAUCUAACAAAAAAGACAAAUCUGCCACAAAGCUUGAGAGCAUCUUCGGAUGCAGAGGCGGCAGCCUUCGGUGGCGCGAUAGCGCCAACGUUCUCAACUAUGACACGCAAAACGCGUGCUCCGUUGAAUGGAGUUUAUCAUG
# Variants of: B1
# Experiment: polymerase ribozyme fitness, log enrichment relative to wild type (log ratio); higher = more active; in vitro selection for triplet polymerase activity
# Procedure, shortened: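 Mutant libraries of both subunits of a heterodimeric triplet polymerase ribozyme were PCR-built, transcribed, and selected once in triplicate, with frozen incubation at −7 °C and capture of gel-excised extended constructs on streptavidin beads before RT-PCR. Illumina sequencing of input and output libraries was filtered to genotypes with ≥10 input reads and ≥1 read per output. Fitness is the logarithm of genotype enrichment over wild-type enrichment, using inverse-variance-weighted replicate averages. The logarithm is base 2.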
row,Variant,polymerase ribozyme fitness (log ratio)
1,U13C U53A A91U A107U,≤ -4.2
2,C14G A30U U33G A49C A52U C72G A73G C87U U144G,≤ -4.2
3,C14A C85A,-2.69
4,C14G A20U C76A,-3.92
5,U13A G25U C85G,-3.79
6,C14A U44A G81A C85A U102G,≤ -4.2
7,C14A C75U,-1.84
8,U13C A37G G126C,-1.85
9,C14G A26U G58C A89U G117U A120C C125A,≤ -4.2
10,C14G A21U G59C G94A U101G A113C,≤ -4.2
11,C14A A60G C85G C118G C132U,-3.89
12,C14A A26U G46A C85U C105A A113G C114A G128A A147G,≤ -4.2
13,C14G A29G C54U C132G,≤ -4.2
14,U13G A40U A60C,≤ -4.2
15,C14G A30U U61A G92A C99A A115G,≤ -4.2
16,C14A A20C C27G,≤ -4.2
17,C14A C18U A22U A26U U82C C95U U145G U148C C149U,≤ -4.2
18,C14A C93U,-2.33
19,U13C A52G U102C C118G,-3.18
20,C14A G50A C85U G126C,-4.17
21,U13A C76A U148G,≤ -4.2
22,C14G A89U C99A A107C,≤ -4.2
23,C14A G62U G94A,-2.9
24,C14G A22G C54U G70U C95U C96A C114U A137C,≤ -4.2

row,Variant,polymerase ribozyme fitness (log ratio)
1,C14A G86C,-3.85
2,C14A A28U G46C U61A C95U U139C A150C,≤ -4.2
3,U13G A26G U31G C51G G88C,≤ -4.2
4,C14A A23C A66U C93A G128U U151A,≤ -4.2
5,U13G G136A U144C,-2.04
6,U13C C51G C54G C75U G83U,≤ -4.2
7,U13G G141C,-1.88
8,U13C C87A,≤ -4.2
9,U13A C69A A120C,-2.74
10,C14A A37U C75G G94A A113G C114G C149A,≤ -4.2
11,C14G A24U,-3.18
12,C14G A24C,-3.63
13,U13C A39C U56A C95U G124A,-3.63
14,U13C G58C G67A G94C,≤ -4.2
15,C14G A73G C79G A98G G143C,≤ -4.2
16,U13G A19G G25C C79A C131G U145G,≤ -4.2
17,U13G U56A,-0.285
18,C14G A19C C75U U82C C93U A97U C105G,≤ -4.2
19,C14A A17U A40U C57G G84U C96A A121C,≤ -4.2
20,U13C G83C C96U C114U,-4.13
21,U13A U135A,-0.229
22,U13G G92C,-2.36
23,U13C A30U C36G C51U U55A C87A G126U,≤ -4.2
24,C14G A21U A60U C75A U77G A89U C95A,≤ -4.2

row,Variant,polymerase ribozyme fitness (log ratio)
1,C14A C38A C93G,≤ -4.2
2,U13C C35A A91U C95A U104C C131G,≤ -4.2
3,U13C U56G A115G,-2.32
4,C14A U53A C96A A98C A120U G141A,-3.99
5,C14A U82G C96G,-2.31
6,C14A A17C C36A U44A U45A C54A C85G G88U C103G A110C,≤ -4.2
7,C14A C35U G58A G86A C96U,-3.96
8,U13G C35A G50A C54A C76G C87G A89U A107C G141C,≤ -4.2
9,U13G A37U C43U A52C A73C G84C U109C G140A,≤ -4.2
10,C14G A17G C27U C96G A122G G141C,≤ -4.2
11,U13G G136A A137G C149U,-3.07
12,U13G C96U A97U A137U,≤ -4.2
13,C14G A40G A41C C54U C85G C99U,≤ -4.2
14,U13A C36A G50A C79U C96A,≤ -4.2
15,U13A G34U A49C G140A A142U,≤ -4.2
16,U13G A52G,-1.06
17,C14A A41U C76G C87A G92C U144G,≤ -4.2
18,U13C C27U A37G C54U A106G U109G C123G G124A,-3.57
19,C14A A41C C76U G84U,-2.89
20,U13G C36A C85U A115U U139C,≤ -4.2
21,C14A G25A U53G G84C C87U G117C G124A,≤ -4.2
22,U13G C14G C57A G71A U101G G124A G141A,≤ -4.2
23,C14A A20C C96U,-1.32
24,C14G A40C C57G,-2.31

row,Variant,polymerase ribozyme fitness (log ratio)
1,C14G A41U G62C C95U C96A G112U A142U U146A A150G,≤ -4.2
2,U13C C93A C96A,-3.63
3,U13A G94C,-1.19
4,C14A U101G,-1.35
5,U13G G42A G50U C76A G86C C132A,≤ -4.2
6,C14A A19C C93U C125A,-3.52
7,U13G C96A,-0.681
8,C14G A20G C75A C96G G141C,≤ -4.2
9,U13C C27U G50C G92C,-4.02
10,U13G U61A A89U C96U,-3.58
11,U13G U55A G94A G100A G140U,-4.11
12,C14A A64U C93U G141A,≤ -4.2
13,C14A C38A G42C U56G G67C G84A C108U U127C,≤ -4.2
14,U13G A41G C54G G81A C96G C118U,≤ -4.2
15,C14A C54U G83U C95U U111G U134G,≤ -4.2
16,U13G A41C U55G G94C C116A G143U U151G,≤ -4.2
17,U13C U44A U55A G59U G84A A150C,≤ -4.2
18,C14G A21U A52G C85A C118G G128A G141C,≤ -4.2
19,U13C C14G A66G A73G C95U A110G,≤ -4.2
20,U13C A40C G48C G50C G83U,≤ -4.2
21,U13G C38U C63U C76U A91G C93G C95U C149U,≤ -4.2
22,C14G A24U A28U C43U A73G U82C C103G G136A U146C,≤ -4.2
23,C14A A16U G83A C93G C95U A98U C108G,≤ -4.2
24,C14A A49G C54U G71A U77C G86U G143A,≤ -4.2

row,Variant,polymerase ribozyme fitness (log ratio)
1,C14G A20G A24U C72G U82G A97G U101C C103G G136A,≤ -4.2
2,U13G A106G,-1.5
3,C14A A19G G68A C99A C123U,≤ -4.2
4,U13C C14G C43G A91G A106U U109G A138G,-4.06
5,C14G A91U C93G C125A,≤ -4.2
6,C14G A26U C27G C35A A52C A91G A107G G126U U130A,≤ -4.2
7,C14A C54A,-3.55
8,C14A C54U,-2.07
9,C14A A17G A22U A24C A41C G70A U78A U90C C129U,≤ -4.2
10,C14A A150G,-2.78
11,U13G U56A G71A U135C,≤ -4.2
12,U13G C36U A47U G84A A122G A138U,≤ -4.2
13,U13G A17G C96A G143C,-4.19
14,U13C A22U A24U U53A A98U,-1.6
15,C14A A39U A49C C57A C79G G86U,≤ -4.2
16,C14A A16G A20G U56A U82G A106G,-3.04
17,C14A A49C C85A U90G G94U A107G G141U,≤ -4.2
18,U13G U90G,-4.04
19,U13C U78G C85A C116U,≤ -4.2
20,U13A G62A A142G,-2.22
21,U13G U56A C76G A91U C93U,≤ -4.2
22,U13C C32A A49C,≤ -4.2
23,U13G C35U C72U C96G C105U G133C,≤ -4.2
24,U13G C85A,-2.23

row,Variant,polymerase ribozyme fitness (log ratio)
1,U13G C85U,-1.63
2,U13A U33A A52U A89G,≤ -4.2
3,U13C U104G,-1.57
4,U13G U77G U145G U151G,≤ -4.2
5,C14G A40G A73G C85U U139A,≤ -4.2
6,U13C A29U A52C G86C A107C U109A,≤ -4.2
7,C14G A30G G46C C95U,-4.17
8,U13G C85U C96U G100A A115C,≤ -4.2
9,U13G A20C U55G U90G C95G C105A C116G G124A,≤ -4.2
10,U13C A17C G67C U77G A89C A120C,≤ -4.2
11,U13C G59C U61G C79U G84A C132A,-4.17
12,U13A C51U C54A G86U C116U A120G,≤ -4.2
13,U13G A28U A64C G68A C79U,≤ -4.2
14,U13C C93A,-2.64
15,U13C C27A A49C U56A A97U,≤ -4.2
16,C14A A17G G74U C85U C99G U101A U148A,≤ -4.2
17,U13G A40C C96G A119G,-1.98
18,U13C U33A C54A C95G A98C C99A A150G,≤ -4.2
19,U13G G81U G86A C105U,-3.74
20,U13C C125A G136C U145C U146C,-3.59
21,C14G A19U G59C G81U C95U G141A,-3.74
22,C14A A66U G68A C72G G92U,≤ -4.2
23,U13C C38G U53A U82G G92A C105G C114U G128C U151C,≤ -4.2
24,U13G A28G U53A A64U G141U U145G G152A,≤ -4.2

row,Variant,polymerase ribozyme fitness (log ratio)
1,C14A A24U U90A,≤ -4.2
2,U13C A24C U45G G84U U135C,≤ -4.2
3,U13G C87U,-1.62
4,C14G A23U A28C A40G G42C A89U C116G G124C U134G,≤ -4.2
5,U13G A40U C96G A121G,-2.57
6,U13C C93U U134A,-3.08
7,U13C A49C A52U G71A A113U,≤ -4.2
8,C14A G62U,-1.57
9,C14A C99G,-1.66
10,C14A A20G C38A A39G C54U A91C A106U G124C,≤ -4.2
11,U13G G65C G83A,≤ -4.2
12,C14A A52G U55G C99U,-3.48
13,U13G C103A,-2.97
14,U13G U53A A66C G83U C149A,≤ -4.2
15,U13G C35A A52C,≤ -4.2
16,U13C G94A G141U,0.369
17,C14A C125A,-1.75
18,U13C U90G C116A,-4.13
19,C14A A28U G68U G92C C125U A137C A150C,≤ -4.2
20,C14A G59C U78G C96U,≤ -4.2
21,C14A C76A A89C U90G C95U A107U,≤ -4.2
22,C14G A17U A37U A52G C57U A91U U127A U134A A150U,≤ -4.2
23,C14G A23G G88A,≤ -4.2
